We go through eight molecules from patent US20260069689A1 (Regeneron, published 2026).

In experiment [1] the target is T1, SARS-COV-2 RBD extracellular domain expressed with a C-terminal mouse IgG2a Fc (SARS-CoV-2). Briefly: Biacore SPR, mAb captured on anti-hFc, 37 C. For orientation: In SPR one partner is held on a chip, and binding of the other changes the refractive index at the surface.
Experiment [2] addresses T1, SARS-COV-2 RBD extracellular domain …. Briefly: Biacore SPR, mAb captured on anti-hFc, 25 C.

Broadly, the Kd is the constant that tells how readily two partners part at equilibrium. Usually koff stands for a measure of how fast the partners let go of each other. The term kon denotes the rate constant with which the complex forms. A low value points to slower complex formation. Usually t½ stands for how long it takes for the measured level to halve. The low end stands for fast loss, the high end for slow loss.

B1: mAb15151 (antibody, V domains shown)
VH: QVQLVESGGGVVQPGRSLRLSCAASGFVFNSYGMHWVRQAPGKGLEWVAVLWYEGSKNYYADSVKGRFTISRDNSKNTLYLQMNSLRAEDTAVYYCARHGSGSFFGYYLDYWGQGTLVTVSS
VL: DIQMTQSPSSLSASVGDRVTITCRASHNINDFLNWYQQKPGKAPRLLIYAASSLQSGVPSRFSGSGSGTDFTLTISSLQPEDFATYYCQESYTTPPTFGQGTKLEIKR
In experiment [1], B1 gave a Kd of 0.85 nM, a koff of 0.0031 s⁻¹, a kon of 3.7e+06 M⁻¹ s⁻¹ and a t½ of 0.0617 h. Moreover, in experiment [2], the Kd stood at 0.00338 nM, the koff worked out at 3.12e-05 s⁻¹, the kon turned out to be 9.24e+06 M⁻¹ s⁻¹ and the t½ was 6.16 h.

B2: mAb15163 (antibody, V domains shown)
VH: EVQLVETGGGLIQPGESLRLSCAASGFIVSTNYMNWVRQAPGKGLEWVSVIYRGGSTYYADSVKGRFTISRDNSKNTLFLQMNSLRAEDTAVYYCARGHEDFDYDTPASGAFDIWGQGTMVTVSS
VL: QSALTQPPSASGSPGQSVTISCTGTSSDVGGHNYVSWYQQHPGKAPKVMIYEVSKRPSGVPDRFSGSKSGNTASLTVSGLQAEDEADYYCSSYAGSNKFVFGTGTKVTVLG
Consider B2, for which, in experiment [1], the affinity, expressed as Kd, was 0.0601 nM; the koff amounted to 2.5e-05 s⁻¹; the kon is 416000 M⁻¹ s⁻¹; the t½ turned out to be 7.7 h. In experiment [2], this molecule showed a Kd of at most 0.0108 nM, a koff of at most 1e-05 s⁻¹, a kon of 930000 M⁻¹ s⁻¹ and a t½ of 19.2 h.

B3: mAb15170 (antibody, V domains shown)
VH: EVQLVESGGGLVQPGGSLRLSCAATGITVSSNYMSWVRQAPGKGLEWVSLIYSGGSTFYADSVKGRFTISRHNSKNTLYLQMSSLRAEDTAVYYCARDLVDFGMDVWGQGTTVTVSS
VL: DIQLTQSPSSLSASVGDRVTITCRASQGISNYLAWYQQKPGKAPKLLIYAASTLQSGVPSRFSGSGSGTDFTLTISSLQPEDFGTYYCQQLNSDSPTFGQGTKVEIKR
As to B3, in experiment [1], binding was characterised by a dissociation constant (Kd) of 0.091 nM, the koff was found to be 2.41e-05 s⁻¹, the kon is 260000 M⁻¹ s⁻¹ and the t½ was determined as 8 h. Moreover, in experiment [2], the Kd is at most 0.0295 nM, the koff was at most 1e-05 s⁻¹, the kon worked out at 339000 M⁻¹ s⁻¹ and the t½ was 19.2 h.

B4: mAb15164 (antibody, V domains shown)
VH: EVQLVESGGGLVQPGGSLRLSCAASGFAVSSNYMTWVRQAPGKGLEWVATIYSGDSTYYADSVKGRFTISRHNSKNTLSLQMNSLRADDTAIYYCARLSGVLSGTYNGAFDIWGQGTMVTVSS
VL: QSALTQPASVSGSPGQSITISCTGTSSDFGNYNIVSWYQQHPGQAPKVMIYEGNKRPSGVSNRFSGSKSGHTASLTISGLQAEDEADYYCSSYAGSSTWVFGGGTKLTVLG
In experiment [1], B4 had a Kd of 0.0518 nM, a koff of 9.4e-05 s⁻¹, a kon of 1.82e+06 M⁻¹ s⁻¹ and a t½ of 2.05 h. In experiment [2], this molecule came in with a Kd of 0.0569 nM, a koff of 2.12e-05 s⁻¹, a kon of 372000 M⁻¹ s⁻¹ and a t½ of 9.09 h.

B5: mAb15165 (antibody, V domains shown)
VH: EVQLVESGGGLVQPGGSLRLSCAASGFTVSSNYMSWVRQAPGKGLEWVSAIYSGDSTYYADSVKGRFTISKDNSKNTLYLQMNSLRGEDTAVYYCARLGGALQAYDGAFDYWGQGTLATVSS
VL: QSALTQPASVSGSPGQSITISCTGTSSDFGSYNLVSWYQQHPGKAPKLMIYEGNKRPSGVSIRFSGSKSGNTASLTISGLQAEDEADYYCSSYAGSSTWVFGGGTKLTVLG
In experiment [1], B5 came in with a Kd of 0.45 nM, a koff of 4.55e-05 s⁻¹, a kon of 100000 M⁻¹ s⁻¹ and a t½ of 4.23 h. For the same molecule, in experiment [2], the Kd came to 0.129 nM, the kon amounted to 301000 M⁻¹ s⁻¹ and the t½ was found to be 4.96 h.

B6: mAb15166 (antibody, V domains shown)
VH: EVQLVESGGGLVQPGGSLRLSCAASGFTVTSNYMSWVRQAPGKGLEWVSAIYSGESTYYADSVKGRFTISRDSSKNTLYLQMNSLRVEDTAVYYCASIHDYSNYVGGFDPWGQGTLVTVSS
VL: QSALTQPASVSGSPGQSITISCTGPSSDFGSYNLVSWYQQHPGKAPKLMIYEGTKRPSGVSNRFSGSKSGNTASLTISGLQAEDEADYYCSSYAGSSTWVFGGGTKLTVLG
In experiment [1], B6 returned a Kd of 0.126 nM, a koff of 9.8e-05 s⁻¹, a kon of 781000 M⁻¹ s⁻¹ and a t½ of 1.97 h. Further, in experiment [2], the affinity, expressed as Kd, was 0.016 nM; the koff is 1.62e-05 s⁻¹; the kon is 1.02e+06 M⁻¹ s⁻¹; the t½ worked out at 11.9 h.

B7: mAb15162 (antibody, V domains shown)
VH: EVQLVETGGGLIQPGGSLRLSCAASEFIVSRNYMSWVRQAPGKGLEWVSLIYSGGSTYYADSVKGRFTISRDNSKNILYLQMNSLRAEDTAVYYCARDRGGISDYWGQGTLVTVSS
VL: DIQMTQSPSSLSASVGDRVTITCQASQDINKYLNWFQQKPGKAPKLLIYDASNLETGVPSRFSGSGSGTDFTFTISSLQPEDIATYYCQQYDNLPRTFGQGTKLEIKR
In experiment [1], B7 came in with a Kd of 0.5 nM, a koff of 0.000101 s⁻¹, a kon of 200000 M⁻¹ s⁻¹ and a t½ of 1.91 h. In experiment [2], this molecule came in with a Kd of 0.179 nM, a koff of 0.00023 s⁻¹, a kon of 1.29e+06 M⁻¹ s⁻¹ and a t½ of 0.837 h.

B8: mAb15161 (antibody, V domains shown)
VH: EVQLVESGGGLVQPGGSLRLSCAASGFTFSSYEMNWVRQAPGKGLEWVSYISSSGSILYYADSVKGRFTASRDNAKNSLYLQMNSLRAEDTGVYYCARREYQLLRPFEFWGQGTLVTVSS
VL: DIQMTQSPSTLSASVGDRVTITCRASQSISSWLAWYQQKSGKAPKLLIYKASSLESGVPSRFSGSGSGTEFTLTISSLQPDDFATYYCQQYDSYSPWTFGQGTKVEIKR
B8: in experiment [1], the Kd worked out at 0.0469 nM, the koff was 4.9e-05 s⁻¹, the kon was determined as 1.05e+06 M⁻¹ s⁻¹ and the t½ was determined as 3.93 h. In experiment [2], the Kd came out at 0.0119 nM, the koff is 1.26e-05 s⁻¹, the kon was determined as 1.06e+06 M⁻¹ s⁻¹ and the t½ came to 15.2 h.
